Reference: publication PMC10585004

Target: Bovine Thyroglobulin (Sigma-T1001) (bovine) (UniProt P01267)
Assay: SAXS; XFEL small-angle scattering, liquid jet (GDVN) with reservoir delivery, thyroglobulin 0.7 mg/ml in PBS; experimental form factor compared with the profile computed (CRYSOL) from the cryo-EM dimer model

stoichiometry N: 2
Substance: Bovine Thyroglobulin (Sigma-T1001), P01267 20-2769
